Measurements: the DeepSol protein solubility set

experiment: soluble on expression in E. coli; label from the status in PepcDB or PDB records

Row | Sequence | soluble on expression in E. coli
1 | MIKLIATDMDGTFLAEDGTYNQEQLAALLPKLAEKGILFAVSSGRSLLAIDQLFEPFLDQIAVIAENGSVVQYRGEILFADMMTKEQYTEVAKKILANPHYVETGMVFSGQKAAYILKGASEEYIQKTKHYYANVKVINGFEDMENDAIFKVSTNFTGHTVLEGSDWLNQALPYATAVTTGFDSIDIILKEVNKGFGMEHLCQALGIKKAETIAFGDNFNDYQMLEFAGRAIATENARPEIKVISDQVIGHCNDGAVLTYLKGLV | not soluble
2 | MAHHHHHHMTFPSVQSSVHLYSNVVELAIRYTDLCAFCGRKAHEGENGSTKGDRAETSGSWHFHLARSKEPIAVSCLHAIMQRTNILGGRVNLFFTFERVPPFGGHKSRAVIQLASFHYSKNMRLCLNVAYLPQEEVRLKTVRAHVDSDCNVLEVACWRVFVFLGRST | not soluble
3 | MGSSHHHHHHGKTIFVIVPTNEEQVAFLEALAKQDELNFDWQNPPTEPGQPVVILIPSDMVEWFLEMLKAKGIPFTVYVEEGGSENLYFQGGGGGGMPPPLPHRRATRACALVAAVALVLVLPTSRARTVGMRSMSAYTEAQQLHTRKFLDGFVQSMPDLHNIWTGDDFCAWKGVTCLRDGVSVSATNWVQLAVPPGRLPEVSSADVDVSQVFVTSISVRANGRNLSGTLPASWGLLQNLRKVRLESNSLTGSLPPEWSGLRSLRELYLSNNNLTGTLPASWGESMKSLAILSLDRNALAGTLPPEWGRMKSMQALVLESNQLSGTLPAEWRFMRAASTLMIGRNYLSGTLPHEWAEMSVMEWMDLHSNRLTGWLPAAWATMTLLNTLLLFDNGFTGTLPTEWARLEFLEELRMQDNVLVGTLPASWSAMVLMQVLDISENTLSGTLPVLWSSMQSLDTLSIRDNQLSGSLPIEWRTLPKIMHLHLEGNALCGCLPLNWTSRYVAVEVDEAVTSVNCATENACNDVNLDSISDKISSSCSSSTSPNGGRRR | not soluble
4 | MGSDKIHHHHHHMINEQRLLNTFLELVQIDSETGNESTIQPILKEKFIALGLDVKEDEAAKHPKLGANNLVCTMNSTIEEGEVPKLYLTSHMDTVVPAINVKPIVKDDGYIYSDGTTILGADDKAGLAAMLEVLQVIKEQQIPHGQIQFVITVGEESGLIGAKELNSELLDADFGYAIDASADVGTTVVGAPTQMLISAKIIGKTAHASTPKEGVSAINIAAKAISRMKLGQVDEITTANIGKFHGGSATNIVADEVILEAEARSHDPERIKTQVKHMTDVFETTASELGGKAEVTVEQSYPGFKINDNEAVVKIAQESARNLGLSANTIISGGGSDGSIINTFGIPSVILGVGYEKIHTTNERMPIKSLNLLASQVLEIIKIVARQSK | not soluble
5 | SLIRMIRKFKVKGLRSPSLLIDMILNDTEEGILVVETDGEEQIKDIEKLLKKYNLKYEVDGNVVKIYVGEIKADKTINVVGATCPGPIMMVSDMLSKMKNGEILEIICGKNSLTDLTEGLKGMGNEIIKVEDKGDGTYRILVKKGEKKEEKAAVTKIDELFIINTTGTGNAEKAYATFMMADVALKMNLKPTIFLMMDGASLALKGECDRVKHPAFPKLGDLVRDILSKGVKIYVCELSAEFRGINEKNLEEGFEIAGAPTFLNYLSKPNVRPVWL | soluble
6 | MAGDPMGQKTQQDIVAGLDEKAKEYTSYKAKAKMTIETGSEPQVYNVEIWHKKPSLYRVYLENPKKDQNQVILRNENGVFVLTPSLNKSFRFQSDWPNNSSQVYLFESLVKDVQNDSDAVFTAKEKKYVFETKTNYQHNKMLPTQEITFNKKDMSPSSVKVMDTDRKVMVKVEFSSFEFNKQFDKESFDEKKNMTLSQMDVATSAKPSDTFAVKTPLELPLGVKLLEEKDISTEDGKRIIMTYGGEKSFTLIQEKAQIAKASSSVTLNGEPVNLGYTIGALSDASLSWTYDGVDYLLSSKDLSKEEMVTVAKSMQGQSSKLEHHHHHH | soluble
7 | MRGSHHHHHHGIQMVSIAINGFGRIGRLVLRIALERKNIDVVAINDPFISVDYAAYMFKYDSTHGKYKGEVSHDGSNLIINGKKVAVFQEKDPATLPWGKLGVDIAVDSTGVFKELDSAQKHIDAGAKKVVITAPSKTAPMFVVGVNEDKYNGEKIVSNASCTTNCLAPIAKIINDEFGIEEGLMTTVHSITATQKTVDGPSHKDWRGGRTASGNIIPSSTGAAKAVGKVLPELQGKLTGMAFRVPTTDVSVVDLTVKLVKAATYDEIKAAVKKVSEGKLKDVVGYTEDAVVSSDFLGDTHSTIFDAAAGIQLSPKFVKLVAWYDNEYGYSTRVVDLVEHVA | soluble
8 | MSLGRVTITAVAREAGVSAITVSRYFNQPEQVSPELRERIAAVVNALGYVPNLVAGGLASARSRVVAMVIPNISGPIFANTIQGFSDTLSQHGFQLLLASSYFSAEQEESAVRAFLGWSPAALVLTSRFHSPATEKMIEQTDVPVIETWDHQPERSPIQIGFSHYDVGVTAARYLYDKGYRRIAFVQNSIAGDFSALERRDGYIATLEGLGIKPWVFVPDAGRAPFEAGKQAMETLMSQTPRPDAIFFANDNLAAGALLASQRAGLHIPKDCAVMGFGDYAFAEMMLPSLTTIKPPALEIGVLAATRVLESLGVLPVEGDIQRLNLLECRLVERESTEGHHHHHH | soluble
9 | MGSDKIHHHHHHMTFLFFQPSSNIIKPYALMDLDDTLFQTQRKIDAWELPTTEPENLVCATVNKQGEPLSFMSQRQAAFFNWLLASTELIAVTARDRLEIKRVKLLFNSWQVLTHGAVILTSDGEPLSTWQQHMYNALIPLQDKINQLTEWVNSYSKESDRTHNDLKLTPHTDTFIDSELTIYLAIKHTQKDHQALAELATQLPTLIPDFDAHFYVHVNANNLAILPHAVHKRHAVQFLLEQHLDHQRPSFGFGDSLADLPFLQLLDWYGMPNHGQLHTQQ | not soluble
10 | MGSDKIHHHHHHAQVNDTIQRTTGNDLYQGITRKLPYWQMVTPHGVQVTFAKTVHIIFPSAVRYVDLGSNWIIAGKADGAENVIRVKAATEGFPGETNFSVICEDGSFYSFNARYAHEPEMLNIEMKDFLENGDTTDFSHTRMNIHFRELAGESPLLVKLIMQSIYKEDRREIRHLGCKRFGVQFLLKSVHSHNGLFYFHTETRNRSNVAFRTDFIRFKIVDKKVPKRTAIQERVIDPVRSYNEVLVTEGKSDVRTVYAVPQFTIPDDKLLVIELFEKDGGRHQTIRVENADLVAARQINELKIK | not soluble
11 | MSLHATMEDVAKLAGVSLKSVSRVINAEPHVSAKLRAKVEAAIAELNYVPDTAARSLAGSRAFIVGLLFDNPSPNYTMNIQKGVYETCRDQQHHLRIDNIDSTVPAEKFEAQLAAMVRNSRCDGFVLTPPLTDNVVLLDFLDRSGIRYVRIAPDIQPDRSPGVCIDDAAAAAAAARHLWELGHRRFAVVRGPASHGAAGRRRQGFIDELHRLGAENPIIEAEGNFSFESGIAAGAKVLAATPRPTAIFAANDDSAAGVMVACSQAGLKVPNDVSVCGFDDSWVAKSVWPYLTTVYQPIEEMGRAAAALLLRRDEPDNVLHELDFSLVVRASTAEGHHHHHH | soluble
12 | MAHHHHHHMRMSLTTRRPFCPVLLNIGSSRAVTLSHFHAKVCPSITATVKQTIRELDDEASPNHQRRQESCFSSGELRLRPYGFSPERPQLQHESWSCAWHSYLNAVRLRGEVSAAGVAPLPPTATSANSTSHNDDEFFPMTGTLTLPVPVVVPTSNNEPSNETIMMEFFRVDAFIPVRVQMYHVMRRLIKMQAVWNNIVAIGIVVPTHEVEYFISAARAAHASDGERTPHALLSRKPSVLVYDPEGLRFQAPESKRLRK | not soluble
13 | MNVRVLVVEDERDLADLITEALKKEMFTVDVCYDGEEGMYMALNEPFDVVILDIMLPVHDGWEILKSMRESGVNTPVLMLTALSDVEYRVKGLNMGADDYLPKPFDLRELIARVRALIRRKSESKSTKLVCGDLILDTATKKAYRGSKEIDLTKKEYQILEYLVMNKNRVVTKEELQEHLWSFDDEVFSDVLRSHIKNLRKKVDKGFKKKIIHTVRGIGYVARDE | soluble
14 | MGSDKIHHHHHHMLGTLKKMRVQLDDAQQVQYQLVVGDELLTLNPLIGKQLTLTHTGNIFCCNCGKKSKKSYSQGHCFVCMQKLASCDMCIMKPETCHYDQGTCREPEWAQSHCFVPHYVYLANTSGVKVGITRHTQLPTRWIDQGATQGLPIFKVSTRQLSGLVEVELAKLVNDKTHWQAMLKGHADDIDLNVKAAELIPQIEAKLHEIGMQKGDYSIERLDETIQPIHYPIDTFPKKITSHNFDKNGVVSGILQGIKGQYLMFDTGVINIRKFSSYEISVEHD | not soluble
15 | MSLDGQGEAVVEGHEAALLLSESRASVDPELRSAIATLPESMRRVALYHFGWQHADGTPAAGNAGKAIRPALVLTAAAALGGPGARAAAVRAAAAVELVHNFTLLHDDVMDRDATRRHRPTAWTVFGDADAILAGDALQALALRLFAADPHPASAAAATRLADCVMELCEGQHADTAMERRPPDEVTLDETLVMAEAKTGALLGCACAVGALYAGAATEDVEALDAFGREAGMAFQLIDDVIGIWGDPRHTGKPAGADLAARKKSLPVVAALTSGTPAAAELAELYTGPYDENKEDLERTALAVERAGGRDWAQAQAADRMARAMQELARAVPEPEAAGGLLALAEFVTRRSTEGHHHHHH | soluble
16 | MNAILHDMAVPFYKPVSNECSLFEAASRKGLPLLLKGPTGCGKTRFVEHMAARMGRKLYTVACHDDLSAADLIGRYLLKGGATEWVDGPLTRAVREGAICYLDEVVEARKDVTVVLHPLTDNRRTLMIDRTGEELVAPPGFMLVASYNPGYQNILKRLKPSTRQRFLSIGFTFPDPVTETAVVARESGLSEAKVAPLVRLAGHVRALSGMDLEEGVSTRLLVYAASLMAGGMSIEAALEAAVIEPLTDEPDVAQALRDLIATVYGLEHHHHHH | not soluble
17 | MSLTEDVTSQTSESLARHSVLAEDLSQDGLTSLGAPGARVLLVWDAPNLDMGLGSILGRRPTALERPRFDALGRWLLARTAEIVAGRPGISTEPEATVFTNIAPGSAEVVRPWVDALRNVGFAVFAKPKVDEDSDVDRDMLAHIDERYREGLAALVVASADGQAFRQPLEAVARSGTPVQVLGFREHASWALASDTLEFVDLEDIAGVFREPLPRIGLDSLPEQGAWLQPFRPLSSLLTSRV | soluble
18 | MAHHHHHHHRSEQIAAVRRMVEAYNTGKTDDVADYIHPEYMNPGTLEFTSLRGPELFAINVAWVKKTFSEEARLEEVGIEERADWVRARLVLYGRHVGEMVGMAPTGRLFSGEQIHLLHFVDGKIHHHRDWPDYQGTYRQLGEPWPETEHRRP | soluble
19 | MAKRGRKRKVSKDEENTTPEPEMKKKADEKVVELDEKDWMPSAALEFFENENFKEIVENLSHLDNSVTLVGPFRKLRGESDADGTDLIMLDREMTDLPEMQTFMKCSHGRYAFWRDKPNDKKPVIVFMDLKTIPDLSVVGNEIRHAILDFCTRCSKCIDCSAKSKAANSKIQSFFTPSKISSEVKEVLKHREKTTVRGISGPGMLIDVVPTGNSGKKNKKNERTGYRDLSKNAYCINIEHLVRSLRLCQTKEQEEKVLDFVYGLMNEINICNDEGDFGNGLELGHILFLANMKAVADPMMITLHIAYKNLHRPDFAKILDLTLSLRDQQEEAT | soluble
20 | MMSTSDRSRLPLVYACSGCSSVAQLANAFAVRLDRSGQAEMSCISGVGGRVPALTRIAQSGRPILAIDGCQLACVKACLEGVGVVASRHLVLNRIGATKRQHGECTEAEEAATWQSIKLALSEILPVSESVVSN | soluble
